Measured values as given in patent EP1706427B1 (Crucell Holland B.V., dated 2011).

T1: murine CD1d (mouse, UniProt P11609 22-336)
T1 construct: whole, on cells; also called mouse thymocytes
T1 sequence (looked up): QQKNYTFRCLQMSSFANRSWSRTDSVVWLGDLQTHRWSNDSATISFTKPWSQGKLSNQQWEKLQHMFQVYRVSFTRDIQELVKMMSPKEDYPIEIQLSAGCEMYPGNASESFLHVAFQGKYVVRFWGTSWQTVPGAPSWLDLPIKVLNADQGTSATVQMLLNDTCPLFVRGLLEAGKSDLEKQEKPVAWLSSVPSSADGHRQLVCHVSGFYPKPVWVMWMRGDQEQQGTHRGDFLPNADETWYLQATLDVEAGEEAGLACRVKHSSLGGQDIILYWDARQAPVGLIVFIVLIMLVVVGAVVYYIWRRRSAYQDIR


Experiments:
murine CD1d = molecular target: T1, murine CD1d; test: flow cytometry on mouse thymocytes, Kolmogorov-Smirnov D-value
murine CD1a = molecular target: T2, murine CD1a (mouse); test: as above
T2 construct: whole, on cells; no mouse CD1a entry is known to me; also called mouse thymocytes

Binder	D-value (murine CD1d)	D-value (murine CD1a)
human anti-human CD1a monoclonal antibody CR2113 (antibody, human IgG1, kappa, V domains shown, Human IgG1 kappa made in 293T cells, purified over protein A and size exclusion; Used unlabelled and biotinylated; also called 02-113) VH: QVQLQESGAGLLKPSETLSLTCAVYGGSFSGYYWSWIRQPPGKGLEWIGYIYYSGSTNYNPSLKSRVTISVDTSKNQFSLKLSSVTAADTAVYYCAKAPYMMYFDSWGQGTLVTVSS VL: not shown	0	0
human anti-human CD1a monoclonal antibody CR2117 (antibody, human IgG1, kappa, V domains shown, Human IgG1 kappa made in 293T cells; Used unlabelled and biotinylated; also called 02-117) VH: EVQLVESGGGLVHPGGSLRLSCAGSGFTFSSYAMHWVRQAPGKGLEWVSAIGTGGGTYYADSVKGRFTISRDNAKNSLYLQMNSLRAEDTAVYYCARSTPWFSFDYWGQGTLVTVSS VL: not shown	0	0
human anti-human CD1a monoclonal antibody CR2118 (antibody, human IgG1, kappa, V domains shown, Human IgG1 kappa made in 293T cells; Used unlabelled and biotinylated; also called 02-118) VH: EVQLVESGGGLVHPGGSLRLSCAGSGFTFSSYAMHWVRQAPGKGLEWVSAISTGGGTYYADSVKGRFTISRDNAKNSLYLQMNSLRAEDTAVYYCARSAWWLSFDSWGQGTLVTVSS VL: not shown	0	0
human anti-human CD1a monoclonal antibody CR2114 (antibody, human IgG1, kappa, V domains shown, Human IgG1 kappa made in 293T cells; Used unlabelled and biotinylated; also called 02-114) VH: EVQLVESGGGLVQPGGSLRLSCAASGFTFSSYSMNWVRQAPGKGLEWVSYISSSSSTIYYADSVKGRFTISRDNAKNSLYLQMNSLRDEDTAVYYCAKETWWQSFDYWGQGTLVTVSS VL: not shown	0	0
